This passage reports Kd results from patent US20200147230A1.

The target of experiment [1] is murine nucleolin (in Colon 26 / C26 murine colon carcinoma cells) (murine) (UniProt P09405). The experiment is described as follows: fixed cell assay on fixed, permeabilised murine C26 cells; negative control.
Experiment [2] deals with human nucleolin (human) (UniProt P19338). The experiment is described as follows: fixed cell assay on fixed, permeabilised Raji cells; negative control, ambiguous fit.

A word on the Kd: it is the equilibrium constant for the complex coming apart.

UniProt P19338, sequence (P19338 2-710 limits assumed): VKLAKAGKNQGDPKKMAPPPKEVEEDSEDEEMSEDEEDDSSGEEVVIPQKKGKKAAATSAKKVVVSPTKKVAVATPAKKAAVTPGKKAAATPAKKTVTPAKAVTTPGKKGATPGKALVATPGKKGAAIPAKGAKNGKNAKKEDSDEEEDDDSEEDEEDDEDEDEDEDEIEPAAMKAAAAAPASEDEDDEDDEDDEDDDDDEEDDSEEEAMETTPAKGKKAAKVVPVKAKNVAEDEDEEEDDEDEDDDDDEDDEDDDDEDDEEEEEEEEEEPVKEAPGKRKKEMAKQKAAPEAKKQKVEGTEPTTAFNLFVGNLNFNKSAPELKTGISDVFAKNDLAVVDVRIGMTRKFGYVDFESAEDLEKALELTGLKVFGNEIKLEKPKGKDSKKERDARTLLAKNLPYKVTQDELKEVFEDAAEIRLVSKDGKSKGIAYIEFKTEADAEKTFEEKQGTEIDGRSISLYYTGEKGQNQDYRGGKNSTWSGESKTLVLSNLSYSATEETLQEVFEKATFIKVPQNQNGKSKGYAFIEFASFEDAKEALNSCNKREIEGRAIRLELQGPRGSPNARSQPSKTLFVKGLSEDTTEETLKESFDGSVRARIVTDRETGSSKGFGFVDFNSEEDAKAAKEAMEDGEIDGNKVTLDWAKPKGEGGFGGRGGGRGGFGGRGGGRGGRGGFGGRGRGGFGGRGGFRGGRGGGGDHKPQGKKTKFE
UniProt P09405, sequence (P09405 2-707): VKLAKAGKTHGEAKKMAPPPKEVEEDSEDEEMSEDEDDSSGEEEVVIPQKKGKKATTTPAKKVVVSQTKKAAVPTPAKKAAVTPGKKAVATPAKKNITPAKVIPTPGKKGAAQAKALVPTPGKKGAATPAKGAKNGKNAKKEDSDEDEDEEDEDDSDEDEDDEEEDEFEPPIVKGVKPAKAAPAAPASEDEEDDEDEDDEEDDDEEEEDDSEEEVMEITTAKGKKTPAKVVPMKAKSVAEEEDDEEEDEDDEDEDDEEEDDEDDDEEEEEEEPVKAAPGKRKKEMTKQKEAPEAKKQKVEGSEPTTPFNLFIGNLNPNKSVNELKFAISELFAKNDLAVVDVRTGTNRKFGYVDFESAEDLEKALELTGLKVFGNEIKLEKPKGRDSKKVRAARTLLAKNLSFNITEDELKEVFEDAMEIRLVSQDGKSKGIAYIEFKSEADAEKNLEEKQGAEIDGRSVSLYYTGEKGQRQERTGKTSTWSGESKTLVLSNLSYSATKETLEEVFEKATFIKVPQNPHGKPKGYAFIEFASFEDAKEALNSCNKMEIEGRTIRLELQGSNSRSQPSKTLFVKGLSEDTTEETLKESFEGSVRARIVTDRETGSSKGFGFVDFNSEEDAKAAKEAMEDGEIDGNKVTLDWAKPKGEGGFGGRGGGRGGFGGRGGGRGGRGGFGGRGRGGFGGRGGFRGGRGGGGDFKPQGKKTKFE

Regarding IgG1 isotype control antibody, the equilibrium dissociation constant (Kd) in experiment [1] was 33.3 µM; in experiment [2], 1.3 µM.
